For the test, the target named is T1, native mGluR5 in detergent extracts of rat hippocampus (rat, UniProt P31424 21-1203, limits assumed).
T1 construct: Native protein in tissue lysate
Description: in vitro binding assay with detergent extracts of hippocampus.
Description: 40 ml of beads were then incubated with lysate from one hippocampus for one hour at 4° C., washed three times with PBS, and bound mGluR5 was eluted by boiling in 3× loading buffer.

T1 sequence (P31424 21-1203 limits assumed): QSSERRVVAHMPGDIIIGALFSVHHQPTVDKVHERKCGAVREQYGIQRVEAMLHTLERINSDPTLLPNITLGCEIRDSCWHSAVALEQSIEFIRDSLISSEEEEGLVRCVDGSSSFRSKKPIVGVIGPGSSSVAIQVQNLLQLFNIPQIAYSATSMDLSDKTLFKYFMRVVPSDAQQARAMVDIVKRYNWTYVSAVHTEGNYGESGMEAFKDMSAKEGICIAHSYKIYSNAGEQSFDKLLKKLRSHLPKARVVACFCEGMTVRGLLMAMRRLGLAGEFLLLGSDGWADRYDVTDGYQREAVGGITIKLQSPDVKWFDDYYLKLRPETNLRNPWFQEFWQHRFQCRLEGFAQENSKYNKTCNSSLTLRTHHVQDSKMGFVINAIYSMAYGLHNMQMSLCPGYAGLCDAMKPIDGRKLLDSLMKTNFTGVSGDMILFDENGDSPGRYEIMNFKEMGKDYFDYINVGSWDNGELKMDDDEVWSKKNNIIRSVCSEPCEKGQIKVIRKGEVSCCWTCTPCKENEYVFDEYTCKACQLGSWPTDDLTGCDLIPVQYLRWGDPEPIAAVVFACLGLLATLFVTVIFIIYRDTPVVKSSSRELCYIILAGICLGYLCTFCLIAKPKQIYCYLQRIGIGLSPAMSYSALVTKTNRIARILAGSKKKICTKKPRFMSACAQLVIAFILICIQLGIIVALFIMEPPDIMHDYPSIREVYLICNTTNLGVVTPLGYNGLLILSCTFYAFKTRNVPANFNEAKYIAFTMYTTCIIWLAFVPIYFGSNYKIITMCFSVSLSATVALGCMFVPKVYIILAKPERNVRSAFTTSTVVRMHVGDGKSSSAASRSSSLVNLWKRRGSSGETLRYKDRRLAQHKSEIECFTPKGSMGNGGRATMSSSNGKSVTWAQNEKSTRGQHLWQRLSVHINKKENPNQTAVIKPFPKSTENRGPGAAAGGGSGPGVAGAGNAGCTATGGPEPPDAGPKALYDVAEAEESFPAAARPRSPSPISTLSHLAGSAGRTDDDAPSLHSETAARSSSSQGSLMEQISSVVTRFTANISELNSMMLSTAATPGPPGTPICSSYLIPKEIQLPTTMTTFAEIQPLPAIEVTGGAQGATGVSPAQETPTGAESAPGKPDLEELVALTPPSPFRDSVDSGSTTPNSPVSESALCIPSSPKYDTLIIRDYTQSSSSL

B1: GST-Homer fusion protein (rat Homer) used with hippocampal extracts (other)
chain: GEQPIFSTRAHVFQIDPNTKKNWVPTSKHAVTVSYFYDSTRNVYRIISLDGSKAIINSTITPNMTFTKTSQKFGQWADSRANTVYGLGFSSEHHLSKFAEKFQEFKEAARLAKEKSQEKMELTSTPSQESAGGDLQSPLTPESINGTDDERTPDVTQNSEPRAEPAQNALPFSHRYTFNSAIMIK
notes: also called Homer GST fusion protein; Homer GST-fusion protein; not shown: glutathione S-transferase (GST) fusion partner, bacterially expressed
Consider B1, for which the binding result is given as “binds”.

Values taken from patent US20060147914A1 (Johns Hopkins, published 2006).
